Results reported in paper PMC11077065.

Key:
[1] = molecular target: PhiPA3 ChmC-ΔC (residues 204-251 removed) (bacteriophage PhiPA3); test: SEC-MALS
[2] = molecular target: PhiPA3 ChmC (Chimallin C, gp61), full-length (bacteriophage PhiPA3); test: SEC-MALS

Substance	stoichiometry N [1]	stoichiometry N [2]
PhiPA3 ChmC-ΔC (residues 204-251 removed) (domain or fragment)	4	–
PhiPA3 ChmC (Chimallin C, gp61), full-length (natural protein)	–	4
